Measurements taken from patent US20260201069A1, “ANTIBODIES THAT SPECIFICALLY BIND MODIFIED OLIGONUCLEOTIDES” (Hoffmann-La Roche Inc., priority 2024, published 2026).
Numbering of substitutions follows the chain as printed.

B1: clone 1.5.13: anti-LNA monoclonal hybridoma antibody, VH SEQ ID NO: 81, VL SEQ ID NO: 89 (antibody, listed as Mus musculus, V domains shown)
VH: QVQLKESGPGLVAPSQSLSITCTISGFSLTTYGVHWVRQPPGMGLEWLVVIWGDGSTTYNSALRSRLSISKDNSRSQVFLKMNSLQTDDTAMYYCARHGGRYALDYWGQGTSVTVSS
VL: DIVMTQSPATLSVTPGDRVSLSCRASQSIGGYLHWYQQKSHESPRLLIKYASQSMSGIPPRFSGSGSGSDFTLSINSVAPEDVGVYYCQAGHTFPLTFGAGTKL
B2: clone 1.7.15: anti-LNA monoclonal hybridoma antibody, VH SEQ ID NO: 12, VL SEQ ID NO: 21 (antibody, listed as Mus musculus, V domains shown)
VH: QVQLKQSGPSFVQPSQSLSITCTVSGFSLTTYGVHWVRQSPGKGLEWLGVIWRSGGTDYNAAFMSRLSITKDNSKSQVFFKMNSLQTDDTAIYYCTNLYYWGQGTTLTVSS
VL: DIVMTQATFSNPVTLGTSVSISCRSSKSLLRSNGITYLYWYLQKPGQSPQLLIYQMSNLASGVPDRFSSSGSGTDFTLRISRVEAEDVGVYYCGQNLELPYTFGSGTKVEIK
B3: clone 1.9.21: anti-LNA monoclonal hybridoma antibody, VH SEQ ID NO: 48, VL SEQ ID NO: 57 (antibody, listed as Mus musculus, V domains shown)
VH: QVQLQQSGAELVRPGTSVKVSCKASGYAFTNYLIEWIKQRPGQGLEWIGVINPGSGGTNYNEKFRVKATLTADKSSSTAYMQLSSLTSDDSAVYFCARGGGYYWGQGTLVTVSA
VL: DIVMTQAAPSVPVTPGESVSISCRSSKSLLHSNGNTYLFWFLQRPGQSPQVLIYRMSNLASGVPDRFSGSGSGTAFTLRISRVEAEDVGVYYCMQHLEYPYTFGSGTRLEIK
B4: clone 1.2.8: anti-LNA monoclonal hybridoma antibody, VH SEQ ID NO: 30, VL SEQ ID NO: 39 (antibody, listed as Mus musculus, V domains shown)
VH: QIQLRESGPGLVAPSQSLSITCTVSGFSLTNYGVHWVRQPPGKGLEWLGVIWAGGSTIYNSALMSRLSISRDNSKSQVFLEMNSLQTYDTAMYYCARDRPFDGFFFSYWGQGTALTVSS
VL: DVLMTQTPLSLPVSLGDQASISCRSSQAIVHRSGNTFLEWYLQKPGQSPKLLIYKVSNRFSGVPDRFSGSGSGTDFTLKINRVEAEDLGVYYCFQGSHVPYTFGSGTKLEIK
B5: clone 1.4.10: anti-LNA monoclonal hybridoma antibody, VH SEQ ID NO: 65, VL SEQ ID NO: 73 (antibody, listed as Mus musculus, V domains shown)
VH: B4 VH with T30V, V34I, S76N
VL: B4 VL

Tested on: DNA
Assay: Epitope mapping solid phase immunoassay (ELISA)
Format: binding
Settings: signal-to-noise (S/N) class
Description: (§1) The epitope was mapped using immunoassays with capture molecules containing the following binding epitopes as well as combinations thereof: • LNA (2′-0,4-C-methylene), • phosphorothioate in the NA backbone, • nucleotides/sequence of bases, • DNA, • GalNAc-C6-modification.
(§2) The results of the epitope characterization of the antibodies according to the current invention by solid phase immunoassay (ELISA) using different biotinylated LNA, PS-backbone or DNA-containing NA-oligonucleotides as outlined above are shown in FIGS. 1 to 5.
(§3) The selected monoclonal LNA-specific Abs were further characterized for binding characteristics and epitope mapped by immunoassay using capture molecules containing the following binding epitopes and combinations thereof • LNA (2′-O.4-C-methylene) • phosphorothioate in the NA backbone • nucleotides/sequence of bases • DNA • GalNAc-C6-modification
(§4) The results of the antibody characterization by solid phase immunoassay (ELISA) using different biotinylated LNA, PS-backbone or DNA-containing NA-oligonucleotides are shown in FIGS. 1 to 5.

How did the “Reactivity to DNA” value turn out when B1 was run?
The value was “− (−: S/N <2)”.

Which “Reactivity to DNA” value does the source give for B2 here?
Its value is “− (−: S/N <2)”.

Which “Reactivity to DNA” value does the source give for B3 here?
Its value is “− (−: S/N <2)”.

How did the “Reactivity to DNA” value turn out when B4 was run?
Its value is “− (−: S/N <2)”.

Which “Reactivity to DNA” value does the source give for B5 here?
The value was “− (−: S/N <2)”.

Tested on: GalNAc-C6-modification
Assay: Epitope mapping solid phase immunoassay (ELISA)
Format: binding
Settings: signal-to-noise (S/N) class
Description: as §1, §2, §3, §4

B1 was tested. Which “Reactivity to GalNAc-C6-modification” value did it give?
The value was “− (−: S/N <2)”.

B2 was tested. Which “Reactivity to GalNAc-C6-modification” value did it give?
Its value is “− (−: S/N <2)”.

Which “Reactivity to GalNAc-C6-modification” value does the source give for B3 here?
The value was “− (−: S/N <2)”.

Which “Reactivity to GalNAc-C6-modification” value does the source give for B4 here?
The value was “− (−: S/N <2)”.

With B5 as the molecule, how does the “Reactivity to GalNAc-C6-modification” value read?
Its value is “− (−: S/N <2)”.

Tested on: LNA (2′-O,4-C-methylene)
Assay: Epitope mapping solid phase immunoassay (ELISA)
Format: binding
Settings: signal-to-noise (S/N) class
Description: as §1, §2, §3, §4

With B1 as the molecule, how does the “Reactivity to LNA (2′-O,4-C-methylene)” value read?
Its value is “− (−: S/N <2)”.

B2 was tested. Which “Reactivity to LNA (2′-O,4-C-methylene)” value did it give?
The value was “− (−: S/N <2)”.

Which “Reactivity to LNA (2′-O,4-C-methylene)” value does the source give for B3 here?
Its value is “++ (++: S/N: 5 to 10)”.

How did the “Reactivity to LNA (2′-O,4-C-methylene)” value turn out when B4 was run?
Its value is “− (−: S/N <2)”.

How did the “Reactivity to LNA (2′-O,4-C-methylene)” value turn out when B5 was run?
The value was “− (−: S/N <2)”.

Tested on: Phosphorothioate Backbone
Assay: Epitope mapping solid phase immunoassay (ELISA)
Format: binding
Settings: signal-to-noise (S/N) class
Description: as §1, §2, §3, §4

How did the “Reactivity to Phosphorothioate Backbone” value turn out when B1 was run?
The value was “+++ (+++: S/N ≥10)”.

For B2, which “Reactivity to Phosphorothioate Backbone” value is on record?
The value was “+++ (+++: S/N ≥10)”.

B3 was tested. Which “Reactivity to Phosphorothioate Backbone” value did it give?
Its value is “+++ (+++: S/N ≥10)”.

B4 was tested. Which “Reactivity to Phosphorothioate Backbone” value did it give?
Its value is “+++ (+++: S/N ≥10)”.

Which “Reactivity to Phosphorothioate Backbone” value does the source give for B5 here?
Its value is “+++ (+++: S/N ≥10)”.

Tested on: LNA sequence (nucleotides/sequence of bases)
Assay: Epitope mapping solid phase immunoassay (ELISA)
Format: binding
Settings: signal-to-noise (S/N) class
Description: as §1, §2, §3, §4

Which “Impact of LNA sequence” value does the source give for B1 here?
Its value is “−/+ (−/+: S/N: 2 to 3)”.

B2 was tested. Which “Impact of LNA sequence” value did it give?
Its value is “+++ (+++: S/N ≥10)”.

Which “Impact of LNA sequence” value does the source give for B3 here?
The value was “+++ (+++: S/N ≥10)”.

How did the “Impact of LNA sequence” value turn out when B4 was run?
The value was “− (−: S/N <2)”.

B5 was tested. Which “Impact of LNA sequence” value did it give?
The value was “+ (+: S/N: 3 to 5)”.
